Reference: paper PMC11320570 (ACS Infectious Diseases, 2024)

Legend:
[1] = molecular target: DENV-2 EDIII wild-type Fc-fusion antigen (Dengue virus type 2, strain 16681, UniProt P29990); assay: ELISA; settings: both partners purified
[2] = molecular target: deglycosylated EDIII WT Fc-fusion antigen (Dengue virus type 2, strain 16681, UniProt P29990); assay: ELISA; settings: both partners purified

Row | Binder | binding result [1] | binding result [2]
1 | 513 engineered and humanized antibody (antibody, V domains shown) VH: QVQLVQSGAEVKKPGASVKVSCKAGFNIKDVYMSWVRQAPEQGLEWMGRIDPENGDTKYDPKLQGRVTMTADTSTNTAYMELRSLRSDDTAVYYCARGWEGFAYWGQGTLVTVSS VL: DIVMTQSPASLAVSLGQRATISCRASENVDKYGNSFMHWYQQKPGQPPKLLIYRASELQWGVPDRFSGSGSGTDFTLTISSLQAEDVAVYYCQRSNEVPWTFGQGTKLEIK | binds | –
2 | 3H5 mouse antibody (antibody, V domains shown) VH: QVQLQQSGAEVARPGASVKLSCKASGYTFTSYWLQWVKQRPGQGLEWIGAIWPGDDDTRYAQKFQGKATMTADKSSSTAYIQLSNLASEDSAVYYCARKGGFAMDYWGQGTSVTVSS VL: NIVMTQSPTSLAVSLGQRATISCRASESVDSFGKSFMHFYQQKPGQPPKLLIHLASNLESGVPARFTGRGSRTDFTLTIDPVEADDAATYYCQQNNEVPFTFGSGTKLEVK | binds | binds
3 | 2C8 mouse antibody (antibody, V domains shown, Mouse IgG2a; source: hybridoma culture supernatant, purified (HiTrap protein-G HP)) VH: EVKLVESGGGLVQPGGSLSLSCAASGFTFTDYYMTWVRQPPGKALEWLALIRNKASGYTTEYSASVKGRFTISRDNSQSILYLQMNALRAEDSATYYCTRAKWDGHYFDYWGQGTTLTVSS VL: DIQMTQSPASLSVSVGETVTITCRATKNIYNNLAWYQQKQGRSPQLLVYAATNLADGVPSRFSGSGSGTQFSLRINSLQSEDFGNYYCQHFWHTPWTFGGGTKLEIK | binds | –
